Where a chain is given by its changes, count along the chain named. Read-outs that look alike come from different tables or passages of the source.
Legend:
[1] = biological target: T1, human TNFα (human, UniProt P01375 77-233); test: TNF receptor assay: inhibition of TNF binding to TNFR1-Fc (ELISA)
T1 construct: Coated on plates, coupled to a CM5 chip, or added in solution (10 ng/ml) in the TNF receptor assay; the assay paragraphs often print only 'TNF'; also called TNF alpha; TAR1

[2] = biological target: T1, human TNFα; test: as above; remark: listed apart in the source
[3] = biological target: T2, mouse serum albumin (MSA) (mouse, UniProt P07724 25-608); test: inhibition biacore: dAb premixed with MSA, binding to MSA-coated CM5 chip, Klotz plot (estimated Kd)
T2 construct: Used coated, on a CM5 chip, in solution and biotinylated (about 2 biotins per molecule); also called biotinylated MSA
Experimental: Briefly, the dAbs were tested to determine the concentration of dAb required to achieve 200 RUs of response on a biacore CM5 chip coated with a high density of MSA. Once the required concentrations of dAb had been determined, MSA antigen at a range of concentrations around the expected Kd was premixed with the dAb and incubated overnight. Binding to the MSA coated biacore chip of dAb in each of the premixes was then measured at a high flow-rate of 30 μl/minute.
The purified dAbs were then analysed by inhibition biacore to determine Kd. […] Once the required concentrations of dAb had been determined, MSA antigen at a range of concentrations around the expected Kd was premixed with the dAb and incubated overnight. Binding to the MSA coated biacore chip of dAb in each of the premixes was then measured at a high flow-rate of 30 μl/minute.

[4] = biological target: T1, human TNFα; test: TNF receptor assay: inhibition of TNF binding to TNFR1-Fc (ELISA); remark: listed apart in the source
[5] = biological target: T1, human TNFα; test: cell-based or functional assay
[6] = biological target: T1, human TNFα; test: TNF receptor assay: inhibition of TNF binding to TNFR1-Fc (ELISA); remark: listed apart in the source
[7] = biological target: T1, human TNFα; test: as above; remark: listed apart in the source

T1 sequence (P01375 77-233 limits assumed): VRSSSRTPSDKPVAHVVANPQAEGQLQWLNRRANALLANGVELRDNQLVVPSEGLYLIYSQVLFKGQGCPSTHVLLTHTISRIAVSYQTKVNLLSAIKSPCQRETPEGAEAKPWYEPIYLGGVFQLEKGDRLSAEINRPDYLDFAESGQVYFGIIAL
T2 sequence (P07724 25-608 limits assumed): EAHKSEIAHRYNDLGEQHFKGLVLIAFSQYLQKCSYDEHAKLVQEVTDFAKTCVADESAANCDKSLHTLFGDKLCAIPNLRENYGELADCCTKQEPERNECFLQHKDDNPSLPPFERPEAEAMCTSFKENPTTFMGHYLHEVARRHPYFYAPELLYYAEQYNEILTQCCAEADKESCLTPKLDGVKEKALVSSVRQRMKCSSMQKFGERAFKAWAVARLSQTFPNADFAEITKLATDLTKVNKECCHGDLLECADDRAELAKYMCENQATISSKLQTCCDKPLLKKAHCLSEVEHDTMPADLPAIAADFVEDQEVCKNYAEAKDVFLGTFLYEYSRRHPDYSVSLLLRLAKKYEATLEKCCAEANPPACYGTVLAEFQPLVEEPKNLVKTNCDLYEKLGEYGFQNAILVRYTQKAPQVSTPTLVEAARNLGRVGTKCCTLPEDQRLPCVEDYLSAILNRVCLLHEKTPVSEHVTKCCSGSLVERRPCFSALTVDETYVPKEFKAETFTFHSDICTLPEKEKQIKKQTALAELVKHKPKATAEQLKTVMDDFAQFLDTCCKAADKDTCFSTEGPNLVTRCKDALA

B1: TAR1-5-19, MSA16 cys bonded heterodimer (bispecific antibody, V domains shown)
V domain 1: DIQMTQSPSSLSASVGDRVTITCRASQSIDSYLHWYQQKPGKAPKLLIYSASELQSGVPSRFSGSGSGTDFTLTISSLQPEDFATYYCQQVVWRPFTFGQGTKVEIKR
V domain 2: DIQMTQSPSSLSASVGDRVTITCRASQSIIKHLKWYQQKPGKAPKLLIYGASRLQSGVPSRFSGSGSGTDFTLTISSLQPEDFATYYCQQGARWPQTFGQGTKVEIKR
modifications: C-terminal Cys disulphide bonded to the C-terminal Cys of the MSA16 chain ; Chain 1 pos 109 Cys and chain 2 pos 109 Cys are joined by an intermolecular disulphide bond, made by chemical coupling via dithiodipyridine activation.
notes: Made by chemical coupling via a disulphide bond; separated from monomers by cation exchange; also called disulphide bonded heterodimer of TAR1-5-19 dAb and MSA16 dAb; cys bonded TAR1-5-19, MSA16 dimer
- IC50 [1]: ~18 nM

B2: TAR1-5CH/dAb1 CK Fab (Fab, V domains shown, not shown: large carriers)
V domain 1: B1 V domain 1 with D30F, S31M, Y32N, H34L, S50N, E53V
V domain 2: B1 V domain 1 with D30Y, S31D, Y32A, H34E, S50T, E53R, V92M, W93Q, F96V
- IC50 [2]: ~90 nM

B3: dAb3CH/TAR1-5CK Fab (Fab, V domains shown, not shown: large carriers)
V domain 1: DIQMTQSPSSLSASVGDRVTITCRASQSVKEFLWWYQQKPGKAPKLLIYMASNLQSGVPSRFSGSGSGTDFTLTISSLQPEDFATYYCQQKFKLPRTFGQGTKVEIKR
V domain 2: B1 V domain 1 with D30F, S31M, Y32N, H34L, S50N, E53V
notes: also called TAR1-5CK d3CH
- IC50 [2]: ~100 nM

B4: TAR1-5-19CH/dAb1 CK Fab (Fab, V domains shown, not shown: large carriers)
V domain 1: B1 V domain 1
V domain 2: B1 V domain 1 with D30Y, S31D, Y32A, H34E, S50T, E53R, V92M, W93Q, F96V
notes: also called TAR1-5-19CH d1CK
- IC50 [2]: ~6 nM

B5: dAb1 CH/TAR1-5-19CK Fab (Fab, V domains shown, not shown: large carriers)
V domain 1: B1 V domain 1 with D30Y, S31D, Y32A, H34E, S50T, E53R, V92M, W93Q, F96V
V domain 2: B1 V domain 1
notes: also called TAR1-5-19CK d1CH
- IC50 [2]: ~6 nM

B6: TAR1-5-19CH/dAb3CK Fab (Fab, V domains shown, not shown: large carriers)
V domain 1: B1 V domain 1
V domain 2: B3 V domain 1
notes: also called TAR1-5-19CH d3CK
- IC50 [2]: ~3 nM

B7: MSA16 (other)
VL: DIQMTQSPSSLSASVGDRVTITCRASQSIIKHLKWYQQKPGKAPKLLIYGASRLQSGVPSRFSGSGSGTDFTLTISSLQPEDFATYYCQQGARWPQTFGQGTKVEIK
notes: also called clone 16; clone 21
- Kd [3]: 200 nM

B8: MSA26 (other)
VL: B7 VL with I30Y, K31Y, G50K, R53T, G91V, A92R, R93K, W94V, Q96R
notes: also called clone 26; clone 25
- Kd [3]: 70 nM

B9: TAR1-5-19d5 (other)
chain: DIQMTQSPSSLSASVGDRVTITCRASQSIDSYLHWYQQKPGKAPKLLIYSASELQSGVPSRFSGSGSGTDFTLTISSLQPEDFATYYCQQVVWRPFTFGQGTKVEIKRGGGGSGGGGSGGGGSGGGGSGGGGSDIQMTQSPSSLSASVGDRVTITCRASQSIYDALEWYQQKPGKAPKLLIYTASRLQSGVPSRFSGSGSGTDFTLTISSLQPEDFATYYCQQVMQRPVTFGQGTKVEIKR
- IC50 [4]: ~8 nM

B10: TAR1-5-19 5U homodimer (other)
chain: B9 chain with Y163D, D164S, A165Y, E167H, T183S, R186E, M225V, Q226W, V229F
notes: also called TAR1-5-19 homodimer with (Gly4Ser)5 linker
- CA (cell assay, ND50) [5]: ~3 nM
- IC50 [6]: ~2 nM

B11: TAR1-5d5 (other)
chain: B9 chain with D30F, S31M, Y32N, H34L, S50N, E53V
notes: dAb-linker-dAb dimer; also called TAR1-5 dimer 5
- IC50 [7]: ~200 nM

B12: TAR1-5-19 d6 (other)
chain: DIQMTQSPSSLSASVGDRVTITCRASQSIDSYLHWYQQKPGKAPKLLIYSASELQSGVPSRFSGSGSGTDFTLTISSLQPEDFATYYCQQVVWRPFTFGQGTKVEIKRGGGGSGGGGSGGGGSGGGGSGGGGSGGGGSGGGGSDIQMTQSPSSLSASVGDRVTITCRASQSIYDALEWYQQKPGKAPKLLIYTASRLQSGVPSRFSGSGSGTDFTLTISSLQPEDFATYYCQQVMQRPVTFGQGTKVEIKR
- IC50 [4]: ~10 nM

B13: TAR1-5-19 7U homodimer (other)
chain: B12 chain with Y173D, D174S, A175Y, E177H, T193S, R196E, M235V, Q236W, V239F
notes: also called TAR1-5-19 homodimer with (Gly4Ser)7 linker
- CA (cell assay, ND50) [5]: ~15 nM
- IC50 [6]: ~10 nM

B14: TAR1-5d6 (other)
chain: B12 chain with D30F, S31M, Y32N, H34L, S50N, E53V
notes: dAb-linker-dAb dimer; also called TAR1-5 dimer 6
- IC50 [7]: ~100 nM

B15: TAR1-27d16 (other)
chain: DIQMTQSPSSLSASVGDRVTITCRASQSIWTKLHWYQQKPGKAPKLLIYMASSLQSGVPSRFSGSGSGTDFTLTISSLQPEDFATYYCQQWFSNPSTFGQGTKVEIKRGGGGSGGGGSGGGGSDIQMTQSPSSLSASVGDRVTITCRASQSIGPNLEWYQQKPGKAPKLLIYAASSLQSGVPSRFSGSGSGTDFTLTISSLQPEDFATYYCQQQMGRPRTFGQGTKVEIKR
notes: dAb-linker-dAb dimer; also called TAR1-27 dimer d16
- IC50 [1]: ~50 nM

B16: TAR1-5-19 d1 (other)
chain: DIQMTQSPSSLSASVGDRVTITCRASQSIDSYLHWYQQKPGKAPKLLIYSASELQSGVPSRFSGSGSGTDFTLTISSLQPEDFATYYCQQVVWRPFTFGQGTKVEIKRGGGGSGGGGSGGGGSDIQMTQSPSSLSASVGDRVTITCRASQSIYDALEWYQQKPGKAPKLLIYTASRLQSGVPSRFSGSGSGTDFTLTISSLQPEDFATYYCQQVMQRPVTFGQGTKVEIKR
notes: TAR1-5-19 substituted for TAR1-5 in lead clone d1
- IC50 [4]: ~15 nM

B17: TAR1-5-19 3U homodimer (other)
chain: B16 chain with Y153D, D154S, A155Y, E157H, T173S, R176E, M215V, Q216W, V219F
notes: also called TAR1-5-19 homodimer with (Gly4Ser)3 linker
- CA (cell assay, ND50) [5]: ~30 nM
- IC50 [6]: ~20 nM

B18: TAR1-5d1 (other)
chain: B16 chain with D30F, S31M, Y32N, H34L, S50N, E53V
notes: dAb-linker-dAb dimer; also called TAR1-5 dimer 1
- IC50 [7]: ~30 nM

B19: TAR1-5-19 cys hinge dimer (other)
chain: DIQMTQSPSSLSASVGDRVTITCRASQSIDSYLHWYQQKPGKAPKLLIYSASELQSGVPSRFSGSGSGTDFTLTISSLQPEDFATYYCQQVVWRPFTFGQGTKVEIKREPKSGDKTHTCPPCP
modifications: hinge cysteines form the cystine bond(s) between the two chains
notes: Dimerises in the periplasm; FPLC purified dimer fraction tested; also called cysteine hinge linker format
- IC50 [6]: ~2 nM

B20: TAR1-5d4 (other)
chain: DIQMTQSPSSLSASVGDRVTITCRASQSIFMNLLWYQQKPGKAPKLLIYNASVLQSGVPSRFSGSGSGTDFTLTISSLQPEDFATYYCQQVVWRPFTFGQGTKVEIKRGGGGSGGGGSGGGGSGGGGSGGGGSDIQMTQSPSSLSASVGDRVTITCRASQSVKEFLWWYQQKPGKAPKLLIYMASNLQSGVPSRFSGSGSGTDFTLTISSLQPEDFATYYCQQKFKLPRTFGQGTKVEIKR
notes: dAb-linker-dAb dimer; also called TAR1-5 dimer 4
- IC50 [7]: ~3 nM

B21: TAR1-5-19CYS dimer (other)
VL: DIQMTQSPSSLSASVGDRVTITCRASQSIDSYLHWYQQKPGKAPKLLIYSASELQSGVPSRFSGSGSGTDFTLTISSLQPEDFATYYCQQVVWRPFTFGQGTKVEIKRC
modifications: C-terminal Cys forms the disulphide between the two chains
notes: Dimer via the engineered C-terminal cysteine, purified by protein L and cation exchange; also called TAR1-5-19CYS disulphide dimer
- IC50 [1]: 0.3 to 0.8 nM

Source: US20110223168A1 (published 2011)
